Experimental data from patent US20110280873A1.
Like-named read-outs stand apart in the source and are kept apart here. Each block holds one substance with its values, some of them ahead of it.

Assays:
Experiment in all cases: cell-based or functional assay
[1] = target: CCR2 (the MCP1 receptor) on THP-1 human monocytic cells (human) (UniProt P41597)
[2] = target: CCR2 (the MCP1 receptor) on THP-1 human monocytic cells (human) (UniProt P41597); remark: listed apart in the source
[3] = target: CCR2 (the MCP1 receptor) on THP-1 human monocytic cells (human) (UniProt P41597); remark: listed apart in the source
[4] = target: CCR2 (the MCP1 receptor) on THP-1 human monocytic cells (human) (UniProt P41597); remark: listed apart in the source

Sequence of UniProt P41597 (P41597 whole entry): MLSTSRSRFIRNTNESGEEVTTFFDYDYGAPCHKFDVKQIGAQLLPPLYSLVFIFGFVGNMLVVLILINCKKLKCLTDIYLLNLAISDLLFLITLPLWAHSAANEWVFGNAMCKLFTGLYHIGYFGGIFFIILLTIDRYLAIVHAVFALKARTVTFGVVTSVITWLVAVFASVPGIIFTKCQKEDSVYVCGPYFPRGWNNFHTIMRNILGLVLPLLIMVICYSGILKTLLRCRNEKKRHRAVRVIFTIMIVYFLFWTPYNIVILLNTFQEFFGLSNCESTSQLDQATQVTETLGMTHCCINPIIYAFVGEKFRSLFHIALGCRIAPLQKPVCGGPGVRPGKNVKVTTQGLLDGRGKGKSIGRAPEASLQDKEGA

EC50, agonist THP-1 cell migration [1]: 0.03 to 0.3 nM
relative % of THP-1 cell migration, agonist assay, 0.03 nM [2]: 22.8%
relative % of THP-1 cell migration, agonist assay, 0.1 nM [2]: 34.5%
relative % of THP-1 cell migration, agonist assay, 0.3 nM [2]: 41.9%
relative % of THP-1 cell migration, agonist assay, 1 nM [2]: 58.9%
relative % of THP-1 cell migration, agonist assay, 3 nM [2]: 53%
relative % of THP-1 cell migration, agonist assay, 10 nM [2]: 34.3%
relative % of THP-1 cell migration, agonist assay, 30 nM [2]: 23.1%
Substance: GSD (human MCP-1, glycine-serine dipeptide, wild-type human IgG1 Fc) (from UniProt P13500 24-99; P01857 99-330) (Fc fusion)

EC50, agonist THP-1 cell migration [1]: 0.03 nM
IC50, antagonist assay of THP-1 cell migration toward rhMCP-1 [1]: 0.01 to 0.1 nM
potency in agonist cell migration relative to rhMCP-1 [1]: 3 fold
relative % of THP-1 cell migration, antagonist assay, rhMCP-1 0 nM, LPD1421 0.01 nM [3]: 11.8%
relative % of THP-1 cell migration, antagonist assay, rhMCP-1 0 nM, LPD1421 0.1 nM [3]: 9.55%
relative % of THP-1 cell migration, antagonist assay, rhMCP-1 0 nM, LPD1421 1 nM [3]: 12.6%
relative % of THP-1 cell migration, antagonist assay, rhMCP-1 0.01 nM, LPD1421 0.01 nM [3]: 10.6%
relative % of THP-1 cell migration, antagonist assay, rhMCP-1 0.01 nM, LPD1421 0.1 nM [3]: 9.42%
relative % of THP-1 cell migration, antagonist assay, rhMCP-1 0.01 nM, LPD1421 1 nM [3]: 8.35%
relative % of THP-1 cell migration, antagonist assay, rhMCP-1 0.03 nM, LPD1421 0.01 nM [3]: 12.7%
relative % of THP-1 cell migration, antagonist assay, rhMCP-1 0.03 nM, LPD1421 0.1 nM [3]: 10.3%
relative % of THP-1 cell migration, antagonist assay, rhMCP-1 0.03 nM, LPD1421 1 nM [3]: 10.7%
relative % of THP-1 cell migration, antagonist assay, rhMCP-1 0.1 nM, LPD1421 0.01 nM [3]: 24.3%
relative % of THP-1 cell migration, antagonist assay, rhMCP-1 0.1 nM, LPD1421 0.1 nM [3]: 12.1%
relative % of THP-1 cell migration, antagonist assay, rhMCP-1 0.1 nM, LPD1421 1 nM [3]: 7.25%
relative % of THP-1 cell migration, antagonist assay, rhMCP-1 0.3 nM, LPD1421 0.01 nM [3]: 41.7%
relative % of THP-1 cell migration, antagonist assay, rhMCP-1 0.3 nM, LPD1421 0.1 nM [3]: 15.9%
relative % of THP-1 cell migration, antagonist assay, rhMCP-1 0.3 nM, LPD1421 1 nM [3]: 13.5%
relative % of THP-1 cell migration, antagonist assay, rhMCP-1 1 nM, LPD1421 0.01 nM [3]: 61.2%
relative % of THP-1 cell migration, antagonist assay, rhMCP-1 1 nM, LPD1421 0.1 nM [3]: 33.7%
relative % of THP-1 cell migration, antagonist assay, rhMCP-1 1 nM, LPD1421 1 nM [3]: 9.44%
relative % of THP-1 cell migration, antagonist assay, rhMCP-1 3 nM, LPD1421 0.01 nM [3]: 44%
relative % of THP-1 cell migration, antagonist assay, rhMCP-1 3 nM, LPD1421 0.1 nM [3]: 39.2%
relative % of THP-1 cell migration, antagonist assay, rhMCP-1 3 nM, LPD1421 1 nM [3]: 9.57%
relative % of THP-1 cell migration, antagonist assay, rhMCP-1 10 nM, LPD1421 0.01 nM [3]: 39.2%
relative % of THP-1 cell migration, antagonist assay, rhMCP-1 10 nM, LPD1421 0.1 nM [3]: 37.9%
relative % of THP-1 cell migration, antagonist assay, rhMCP-1 10 nM, LPD1421 1 nM [3]: 16.1%
relative % of THP-1 cell migration, agonist assay, 0.01 nM [4]: 27.9%
relative % of THP-1 cell migration, agonist assay, 0.03 nM [4]: 63.8%
relative % of THP-1 cell migration, agonist assay, 0.1 nM [4]: 104%
relative % of THP-1 cell migration, agonist assay, 0.3 nM [4]: 86.2%
relative % of THP-1 cell migration, agonist assay, 1 nM [4]: 59.5%
relative % of THP-1 cell migration, agonist assay, 3 nM [4]: 33.1%
relative % of THP-1 cell migration, agonist assay, 10 nM [4]: 26.4%
Substance: LPD1421 (MCP1-Ig fusion: mature human MCP1, linker GGEPKSS of SEQ ID NO: 12, human IgG1 variant hinge-CH3 with D265A) (Fc fusion)

EC50, agonist THP-1 cell migration [1]: 0.03 to 0.3 nM
relative % of THP-1 cell migration, agonist assay, 0.03 nM [1]: 17.7%
relative % of THP-1 cell migration, agonist assay, 0.1 nM [1]: 34.3%
relative % of THP-1 cell migration, agonist assay, 0.3 nM [1]: 35.5%
relative % of THP-1 cell migration, agonist assay, 1 nM [1]: 36.5%
relative % of THP-1 cell migration, agonist assay, 3 nM [1]: 26.7%
relative % of THP-1 cell migration, agonist assay, 10 nM [1]: 17.5%
relative % of THP-1 cell migration, agonist assay, 30 nM [1]: 20.1%
Substance: NGSD (human MCP-1 joined at its carboxy-terminus directly to wild-type human IgG1 Fc) (from UniProt P13500 24-99; P01857 99-330) (Fc fusion)

EC50, agonist THP-1 cell migration [1]: 0.1 nM
relative % of THP-1 cell migration toward rhMCP-1 0.01 nM, medium only [1]: 6.44%
relative % of THP-1 cell migration toward rhMCP-1 0.03 nM, medium only [1]: 15%
relative % of THP-1 cell migration toward rhMCP-1 0.1 nM, medium only [1]: 32%
relative % of THP-1 cell migration toward rhMCP-1 0.3 nM, medium only [1]: 67.5%
relative % of THP-1 cell migration toward rhMCP-1 1 nM, medium only [1]: 100%
relative % of THP-1 cell migration toward rhMCP-1 3 nM, medium only [1]: 97%
relative % of THP-1 cell migration toward rhMCP-1 10 nM, medium only [1]: 75.5%
relative % of THP-1 cell migration, agonist assay, 0.03 nM [1]: 26.5%
relative % of THP-1 cell migration, agonist assay, 0.1 nM [1]: 46.4%
relative % of THP-1 cell migration, agonist assay, 0.3 nM [1]: 80.2%
relative % of THP-1 cell migration, agonist assay, 1 nM [1]: 100%
relative % of THP-1 cell migration, agonist assay, 3 nM [1]: 70.3%
relative % of THP-1 cell migration, agonist assay, 10 nM [1]: 32.8%
relative % of THP-1 cell migration, agonist assay, 30 nM [1]: 26.4%
relative % of THP-1 cell migration toward rhMCP-1 0.01 nM, medium only [3]: 16.2%
relative % of THP-1 cell migration toward rhMCP-1 0.03 nM, medium only [3]: 24.2%
relative % of THP-1 cell migration toward rhMCP-1 0.1 nM, medium only [3]: 34.8%
relative % of THP-1 cell migration toward rhMCP-1 0.3 nM, medium only [3]: 60.7%
relative % of THP-1 cell migration toward rhMCP-1 3 nM, medium only [3]: 82.1%
relative % of THP-1 cell migration toward rhMCP-1 10 nM, medium only [3]: 59.8%
relative % of THP-1 cell migration, agonist assay, 0.03 nM [2]: 28.6%
relative % of THP-1 cell migration, agonist assay, 0.1 nM [2]: 52.2%
relative % of THP-1 cell migration, agonist assay, 0.3 nM [2]: 76%
relative % of THP-1 cell migration, agonist assay, 3 nM [2]: 78.1%
relative % of THP-1 cell migration, agonist assay, 10 nM [2]: 47.5%
relative % of THP-1 cell migration, agonist assay, 30 nM [2]: 25.3%
relative % of THP-1 cell migration, agonist assay, 0.01 nM [4]: 29.2%
relative % of THP-1 cell migration, agonist assay, 0.03 nM [4]: 28.7%
relative % of THP-1 cell migration, agonist assay, 0.1 nM [4]: 59.4%
relative % of THP-1 cell migration, agonist assay, 0.3 nM [4]: 87.3%
relative % of THP-1 cell migration, agonist assay, 3 nM [4]: 78.4%
relative % of THP-1 cell migration, agonist assay, 10 nM [4]: 48.4%
Substance: recombinant human MCP-1 (rhMCP-1) (R & D Systems) (from UniProt P13500 24-99) (ligand)
